B1: Anti-EpCAM-VHH SEQ ID NO 4 (phage-displayed) (VHH)
VHH: QVQLVESGGGSVQAGGSLRLSCVATGFTISRKCMGWFREAPGKKREVIATINTGSSSPYYADGVKGRFTISQDNAKNTVYLQMNSLKPEDTAMYYCAATKGVVVGTGYCGGPYVERPNSAYWGQGTQVTVSS
notes: fusion to the phage coat protein is not described
B2: Anti-EpCAM-VHH SEQ ID NO 8 (phage-displayed) (VHH)
VHH: EVQLVESGGDSVQAGGSLRLSCAASGYSPGSYCMGWFRQAPGKERERVAIIESRGTVTYVDSVKGRFTISKDNAKNTLYLQMNSLKPEDTAMYYCAASRPWSGVRCLHDKYDYWGQGTQVTVSS
notes: as for B1
B3: Anti-EpCAM-VHH SEQ ID NO 6 (phage-displayed) (VHH)
VHH: DVQLVESGGGSAQAGGSLRLSCAASGPTSSLRTMGWFRQASGKERERVAVIWDGRTTDYDDSVQDRFTISQDNAKSTVYLQMNTLKPEDTAMYYCAASPRIVPFASTYFQHWGQGTQVTVSS
notes: as for B1
B4: Anti-EpCAM-VHH SEQ ID NO 2 (phage-displayed) (VHH)
VHH: HVQLVESGGGSVQSGGSLRLSCAASGYAVKNCMGWFRQAPGKEREGVAVINRNGITTYADSVKGRFTISQDKDKNTLDLQMNSLKPEDTAMYYCAATPTLLTIPARFLCDVRNPSGFTDWGQGTLVTVSS
notes: as for B1
B5: Anti-EpCAM-VHH SEQ ID NO 1 (phage-displayed) (VHH)
VHH: DVQLVESGGGSVQSGGSLRLSCAASGYTYRRYYMGWFRQAPGEQREGVAVINNDGRTNYADSVKGRFRISRDNAENTLHLEMNSLKPEDTAMYYCAATGNILPPMTAVPPLGRQWYPYWGRGTLVTVSS
notes: as for B1
B6: Anti-EpCAM-VHH SEQ ID NO 3 (phage-displayed) (VHH)
VHH: QVQLVESGGGSVQAGGSLRLSCVVSAYSAYTYKTMCMGWFRQAPGKEREGVAAIYRGGLNTYYADSVKGRFIISRDNAESTMYLQMNSLKPEDTAMYYCAADWLRGDDCNIGANFDYWGQGTQVTVSS
notes: as for B1
B7: Anti-EpCAM-VHH SEQ ID NO 7 (phage-displayed) (VHH)
VHH: HVQLVESGGGSVQAGGSLKLSCAASGSIFSGSIFSRCGMRWYRQAPGKERELVSSTSKDGFTSYTDSVKGRFTISQDNANNTLYLQMSSLKTEDTAVYSCAAICAVGGYSLSTYTYWGQGTQVTVSS
notes: as for B1
B8: Anti-EpCAM-VHH SEQ ID NO 5 (phage-displayed) (VHH)
VHH: DVQLVESGGGSVQAGRSLRLSCELSDYTWSTVCMGWFRQAPGKEREGVAVIYTRSGGTTYADSAKGRFTISRDNAKDTLYLQMDSLKPEDTAMYYCAAGPLYDGRCTYRSPAFHYWGQGTQVTVSS
notes: as for B1
B9: Anti-EpCAM-VHH SEQ ID NO 9 (phage-displayed) (VHH)
VHH: HVQLVESGGGSVQSGGSLRLSCAVSGYAYSSLAWFRQAPGKEREGVAALLTAIGGPTRTTYADSVKGRLAISQDHAKNTLYLQMSSLKPEDTAMYYCAAGRPAGTPRWLLLAPRDYNYWGQGTQVTVSS
notes: as for B1

molecular target: T1, EpCAM-camFc(人EpCAM与羊驼Fc重组蛋白) (human, UniProt P16422 24-265); experiment: phage ELISA, EpCAM-camFc coated, anti-M13 HRP
T1 construct: Recombinant fusion of human EpCAM and alpaca Fc; not shown: alpaca Fc
T1 sequence (looked up): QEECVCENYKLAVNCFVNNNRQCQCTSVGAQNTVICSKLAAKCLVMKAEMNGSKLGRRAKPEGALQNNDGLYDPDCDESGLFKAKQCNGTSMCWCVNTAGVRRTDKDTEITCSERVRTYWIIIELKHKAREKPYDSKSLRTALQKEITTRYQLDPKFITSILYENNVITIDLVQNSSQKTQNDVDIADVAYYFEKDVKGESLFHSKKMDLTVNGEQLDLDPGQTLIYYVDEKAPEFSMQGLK

Binder | binding result
B1 | binds
B2 | binds
B3 | binds
B4 | binds
B5 | binds
B6 | binds
B7 | binds
B8 | binds
B9 | binds
